Reference: patent publication US6685944
Read-outs that look alike come from different tables or passages of the source.

Experiments:
[1] = biological target: HLA-A2.1 on TAP-deficient T2 cells (human); conditions: remark: other sources report otherwise
[2] = biological target: HLA-A2.1 on TAP-deficient T2 cells (human); experiment: T2 cell HLA-A2.1 stabilisation assay, flow cytometry with BB7.2

Binder: DLMGYIPLV (modifications not checked) [wild-type C7A2 peptide (C7A2-WT)]
- FI0.5 [1]: 10 µM

Binder: DLMGYIPVV (modifications not checked) [C7A2-8V peptide]
- FI0.5 [2]: 15 µM
